B1: ZNF263 (parent)
chain: PEASHLRFRRFRFQEAAGPREALS
B2: POLD4 (parent)
chain: ITDSYPVVKRREGPAGHSKGELAP

Variants of: B1
Test: protein stability index of a GFP-peptide fusion (GPS, HEK-293T) (PSI 1-6); higher = more stable
Details: c terminus: a fixed tail appended
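Also: lentivirally expressed fusions sorted by FACS into six bins by GFP to DsRed ratio, PSI derived from sequencing read proportions per bin multiplied by bin number.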

Variant | protein stability index
Q14W | 2.87
Q14D | 4.9
Q14G | 3.68
Q14E | 3.23
Q14P | 3.29
Q14A | 1.81
Q14I | 1.78
Q14Y | 2.26
S24K | 2.76
S24M | 2.19
S24I | 2.52
S24D | 3.06
A16N | 2.69
A16V | 2.31
A16E | 2.36
A16I | 2.85
A16G | 2.43
A16L | 2.57
F8S | 3.21
F8Y | 2.76
F8P | 3.04
F8R | 3.55
F8L | 2.84
P1R | 2.97

Variant | protein stability index
P1H | 2.16
P1Q | 2.79
P1S | 3.74
P1L | 2.53
P1Y | 2.3
L23C | 2.7
L23A | 3.44
L23I | 2.48
L23M | 2.45
E2F | 1.73
E2T | 2.4
E2K | 2.83
E2H | 2
E2G | 2.12
E2C | 1.08
A3W | 1.97
A3Q | 2.55
A3L | 2.4
A3H | 2.84
A3G | 2.95
A3K | 2
A3Y | 2.38
E21S | 2.74
E21M | 2.98

Variant | protein stability index
E21D | 2.54
E21K | 2.45
E21P | 2.89
P19G | 3.11
P19M | 2.8
P19V | 2.21
P19T | 3.26
P19F | 1.76
R10E | 2.68
R10H | 2.27
R10N | 2.35
R10M | 3.12
R20H | 2.4
R20V | 2.65
R9S | 3.8
R9H | 1.98
R9Q | 3.44
R9G | 3.36
R9W | 1.62
R9I | 1.69
R9E | 2.21
G18I | 2.35
G18N | 2.83
G18Y | 2.14

Variant | protein stability index
G18A | 2.27
G18F | 2.26
G18E | 3.44
G18L | 2.21
G18H | 2.98
G18S | 2.96
G18R | 2.65
G18W | 1.88
G18T | 2.97
F13W | 3.58
F13N | 3.8
F13A | 3.97
F13K | 4.07
S4L | 1.83
S4K | 2.04
S4D | 2.92
S4H | 2.04
S4E | 2.97
F11W | 2.67
F11G | 3.89
F11M | 3.61
F11K | 3.85
F11Y | 2.76
F11L | 2.66

Variant | protein stability index
H5N | 2.31
H5W | 2.44
H5G | 2.44
H5S | 2.29
H5K | 1.77
H5L | 2.74
E15L | 2.02
E15R | 1.98
E15Y | 2.05
E15G | 2.24
E15T | 2.74
E15C | 2.31
E15H | 2.04
E15S | 2.54
A17E | 3.34
A17N | 2.78
A17L | 2.21
A17W | 2.69
A17T | 2.61
A17Q | 2.75
A17V | 2.55
R7C | 2.5
R7P | 2.35
R7M | 2.84

Variant | protein stability index
R7H | 2.93
R7F | 2.28
A22K | 2.77
A22R | 2.8
A22T | 2.74
A22S | 2.77
A22F | 2.6
L6P | 3.03
L6C | 2.6
L6A | 3.3
L6M | 2.54
L6G | 3.46
L6R | 3.06
R12M | 3.46
R12L | 2.99
R12Y | 2.4
R12W | 2.56
R12E | 5.03
R12N | 3.77
R12I | 2.33
R12C | 1.81
R12Q | 4.36
R12D | 3.93

Variants of: B2
Test: as above
Details: c terminus: a fixed tail appended

Variant | protein stability index
P24D | 2.5
P24Q | 4.1
P24C | 3.13
P24W | 2.73
P24Y | 2.38
P24A | 2.56
P24E | 3.66
P24N | 3.62
P24F | 4.06
P24L | 3.56
P24V | 2.19
P24R | 2.77
P24S | 3.93
P24M | 2.89
P24I | 1.97
L22S | 3.27
L22Y | 2.52
L22H | 3.2
L22Q | 3.89
L22E | 3.94
L22G | 2.91
L22F | 3.27
L22N | 3.31
L22D | 3.81

Variant | protein stability index
L22R | 2.57
L22M | 3.21
L22C | 3.26
L22I | 3.1
L22V | 3.42
L22P | 3.31
L22W | 3.04
L22T | 3.21
L22K | 3.71
L22A | 3.62
K19R | 2.81
K19F | 2.48
K19M | 2.9
K19S | 3.46
K19I | 2.79
K19L | 2.81
K19P | 4.07
K19N | 2.59
K19Y | 3.06
K19T | 3.62
K19G | 3.89
K19Q | 3.16
K19V | 3.37
K19H | 3.56

Variant | protein stability index
K19E | 3.28
K19D | 3.96
S18M | 2.68
S18L | 2.91
S18Y | 2.46
S18A | 3.01
S18P | 2.84
S18N | 2.22
S18K | 3.02
S18E | 3.26
S18D | 4.01
S18W | 2.8
S18T | 2.87
S18G | 3.94
S18V | 2.1
S18I | 3.44
S18R | 3.14
S18F | 2.91
S18Q | 3.65
S18C | 3.17
S18H | 3.35
H17T | 3.91
H17V | 3.2
H17F | 3.01

Variant | protein stability index
H17N | 3.54
H17S | 3.78
H17E | 4.36
H17Q | 3.51
H17Y | 2.66
H17R | 3.35
H17K | 4.05
H17C | 2.06
H17P | 2.5
H17A | 2.97
H17D | 2.31
H17L | 3.49
H17I | 3.49
G20V | 3.07
G20I | 2.99
G20L | 3.11
G20N | 4.09
G20F | 2.81
G20Y | 2.92
G20A | 3.06
G20T | 2.67
G20P | 4
G20K | 2.62
G20H | 2.22

Variant | protein stability index
G20S | 2.58
G20Q | 2.41
G20E | 2.93
G20W | 2.83
G20C | 3.79
G20M | 3.49
G20D | 3.55
E21L | 2.85
E21V | 3.03
E21N | 3.1
E21G | 3.23
E21T | 2.75
E21M | 2.6
E21Q | 4.12
E21P | 4.46
E21S | 2.89
E21F | 2.64
E21D | 3.37
E21R | 2.13
E21K | 3
E21C | 3.14
E21W | 2.84
E21H | 3.23
E21I | 2.96

Variant | protein stability index
A23G | 2.68
A23I | 3.24
A23D | 2.69
A23E | 3.21
A23Y | 3.21
A23S | 3.59
A23K | 3.65
A23M | 2.1
A23F | 3.27
A23V | 2.8
A23T | 2.68
A23P | 2.96
A23L | 3.2
A23H | 3
A23W | 3.43
A23Q | 3.31
A23N | 3.05
A23R | 3.01
P14Q | 3.89
P14S | 2.43
P14N | 3.55
P14L | 3.24
P14M | 3.06
P14Y | 2.81

Variant | protein stability index
P14R | 2.46
P14E | 4.1
P14I | 3.1
P14W | 2.84
P14V | 1.93
P14K | 2.97
P14T | 3.57
P14D | 2.94
P14G | 2.98
P14H | 3.84
P14F | 3.28
A15N | 2.97
A15M | 3.08
A15L | 3.32
A15P | 3.03
A15S | 2.8
A15H | 2.75
A15C | 2.8
A15Q | 2.94
A15V | 3.23
A15Y | 3.75
A15D | 2.81
A15F | 2.41
A15E | 3.33

Variant | protein stability index
A15K | 3.45
A15T | 2.22
A15R | 3.27
A15I | 2.58
G16T | 3.62
G16W | 2.66
G16M | 2.56
G16V | 2.57
G16A | 4.75
G16I | 2.72
G16E | 3.83
G16Q | 3.5
G16L | 2.49
G16N | 2.82
G16P | 3.28
G16S | 2.51
G16R | 3.64
G16C | 3.52
G16H | 3.08
G16F | 3.33
G16K | 3.07
G16D | 3.77
G16Y | 2.39
